Data set [1] can be described thus: Glucose-dependent fluorescence emission intensity spectra of conjugates (Nanodrop3300). The following applies: for Type of fluorescence response to glucose: Nanodrop3300. It is filed as biochemical. The text has this: Semi-synthetic FRSs were engineered by site-specifically attaching thiol-reactive, environmentally sensitive fluorophores that respond to ligand-mediated conformational changes. Identification of FRS candidates that are useful for sensing applications comprises three steps: • 1. Cysteine scan. Mutant glucose-binding proteins containing single cysteines are constructed for site-specific attachment of thiol-reactive fluorophores. […] Candidate positions fall into three classes: endosteric, replacing a residue that contacts the ligand directly; peristeric, located at the rim of the binding site; allosteric (Marvin et al. 1997 Proc Natl Acad Sci USA, 94, 4366-71; Marvin 1998 J Am Chem Soc, 120, 7-11), located outside the binding site at sites that undergo local structural changes in concert with the hinge-bending motion. • 2. Fluorophore screening. Thiol-reactive, environmentally sensitive fluorophores are attached to each cysteine mutant prepared in step 1. • 3. Evaluation of the glucose-mediated change of all the fluorescent conjugates prepared in step 2. Responses to ligand binding in which there is both a change in fluorescence emission intensity and spectral shape was essential for chemometric applications, because such changes enable ratiometric measurements. Changes in spectral shape typically are accompanied by a shift in the wavelength of the emission intensity maxima. Three classes of fluorescent responses are possible: • i. No response. • ii. Monochromatic response (emission intensity increases or decreases without a change in spectral shape) • iii.

Data set [2] is described as follows: Thermostability: mid-point thermal denaturation temperature (Tm) from temperature-dependent fluorescence (Roche LightCycler). To be noted: apo-protein. It is filed as physicochemical. The text has this:
Protein (un)folding is monitored by binding of SYPRO to the unfolded state as a function of temperature. Fluorescence intensity increases upon binding of SYPRO by the unfolded state.
Panels A-C: ttGBP182C.2.0-Imm0; Panels D-F: ttGBP182C.2.0-Imm1 (see FIG. 13). (A) Solution (Tm=347.6K). (B) Immobilized on Nickel-nitriloacetic acid (Ni-NTA) beads (Tm=346.7K). (C) Reconstituted, desiccated Ni-NTA beads (Tm=347.6K). (D) Fluorescence response of ttGGBP5.2 Imm1 immobilized on NHS-functionalized agarose beads. Data was collected on a Roche LightCycler real-time PCS instrument, recording emission intensities at 488 nm and 510 nm as a function of temperature in a 384-well microtiter plate. […] Temperature melts of twelve different wells. Apo protein thermostability as reported by the denaturation mid-point temperature is 349 K, similar to the protein free in solution. […] (F) Representative Langmuir ligand-binding curve extracted from the three-dimensional data.
Temperatures were advanced in 1K steps. […] Under these experimental photobleaching was not observed.

A short description of data set [3]: Glucose binding: isothermal fluorescence titrations, ratiometric (appKd) and monochromatic (trueKd) fits. The following applies: room temperature. The source says: 2 For a single glucose-binding site, the fractional saturation is given by
[formula] where ^apoIλ2 and ^satIλ2 are the emission intensities of the monochromatic signal at wavelength λ2 of the ligand-free and ligand-bound protein, respectively.

The nature of data set [4]: Galactose binding: isothermal fluorescence titrations of conjugates. On the set-up: key to Galactose trueKd: nb, no bonding. To be noted: Badan conjugate; monochromatic titration curves; room temperature.
Where [5] appears, read: read-out: Glucose appKd, Acrylodan conjugate, dichromatic ratiometry.
Setting [6] is: read-out: Glucose appKd, Badan conjugate, dichromatic ratiometry.
[7] abbreviates: read-out: Glucose trueKd, Acrylodan conjugate, monochromatic titration curves.
Setting [8] is: read-out: Glucose trueKd, Badan conjugate, monochromatic titration curves.
Setting [9] is: Acrylodan conjugate of ttGGBP.17C mutant.
[10] abbreviates: Badan conjugate of ttGGBP.17C mutant.

Like-named read-outs stand apart in the source and are kept apart here.

With W183C (Ec), the “Type of fluorescence response to glucose” value in data set [1] (Acrylodan conjugate of ttGGBP or ecGGBP (Ec) cysteine mutant) was “r (b) (r (b), ratiometric (bathochromic shift))”.
Consider “ecGGBP W183C⋅Acrylodan: Acrylodan attached to W183C mutant of E. coli GGBP (SEQ ID NO: 32)”, for which, in data set [1] (isochromic / hypsochromic / bathochromic), the “direction of emission wavelength shift upon glucose binding” value is “bathochromic”.

B1: ttGGBP17C.5: affinity-tuning mutant, 17C background, SEQ ID NO: 70 (protein)
chain: MKQLNIGVAIYKFDATCMTGVRNAMTAEAQGKAKLNMVDSQNSQPTQNDQVDLFITKKMNALAINPVDRTAAGTIIDKAKQANIPVVFFNREPLPEDMKKWDKVYYVGAKAEQSGILQGQIMADYWKAHPEADKNHDGVMQYVMLMGQPGHQDAILRTQYSIQTVKDAGIKVQELAKDYANWDRVTAHDKMAAWLSSFGDKIEAVFANNDDMALGAIEALKSAGYFTGNKYIPVVGVDATAPGIQAIKDGTLLGTVLNDAKNQAKATFNIAYELAQGITPTKDNIGYDITDGKYVWIPYKKITKDNISDAEQGGSHHHHHH
modifications: ttGGBP17C.5 (affinity-tuning mutant, 17C background (Table 6) with signal peptide replaced with M and GGSHHHHHH at C-terminus)
Take B1: the apoTm turned out to be 348 K in data set [2] (Acrylodan conjugate) and 345 K in data set [2] (Badan conjugate). In addition, the Kd in data set [3] (setting [5]) stood at 6000 µM; in data set [3] (setting [6]) it was 16000 µM; in data set [3] (setting [7]), 6000 µM; in data set [3] (setting [8]) it was 16000 µM. The “Type of fluorescence response to glucose” value in data set [1] (setting [9]) is recorded as “r(h) (r(h), ratiometric (hypsochromic shift))”; in data set [1] (setting [10]), “r(h) (r(h), ratiometric (hypsochromic shift))”.

B2: ttGGBP17C.10: affinity-tuning mutant, 17C background, SEQ ID NO: 75 (protein)
chain: MKQLNIGVAIYKFDDTCMTAVRNAMTAEAQGKAKLNMVDSQNSQPTQNDQVDLFITKKMNALAINPVDRTAAGTIIDKAKQANIPVVFFNREPLPEDMKKWDKVYYVGAKAEQSGILQGQIMADYWKAHPEADKNHDGVMQYVMLMGQPGHQDAILRTQYSIQTVKDAGIKVQELAKDYANWDRVTAHDKMAAWLSSFGDKIEAVFANNDDMALGAIEALKSAGYFTGNKYIPVVGVDATAPGIQAIKDGTLLGTVLNDAKNQAKATFNIAYELAQGITPTKDNIGYDITDGKYVWIPYKKITKDNISDAEQGGSHHHHHH
modifications: ttGGBP17C.10 (affinity-tuning mutant, 17C background (Table 6) with signal peptide replaced with M and GGSHHHHHH at C-terminus)
Take B2: the apoTm in data set [2] (Acrylodan conjugate) was 351 K. Besides, the “Type of fluorescence response to glucose” value in data set [1] (setting [9]) is given as “d (d, intensity decrease only)”.

B3: ttGGBP17C.25: affinity-tuning mutant, 17C background, SEQ ID NO: 83 (protein)
chain: MKQLNIGVAIYKFDDTCMTGVRNAMTAEAQGKAKLNMVDSQNSQPTQNDQVDLFITKKMNALAINPVDRTAAGTIIDKAKQANIPVVFFNREPLPEDMKKWDKVYYVGAKAEQSGILQGQIMADYWKAHPEADKNHDGVMQYVMLMGQPGHQDAILRTQYSIQTVKDAGIKVQELAKDYANWDRVTAHDKMAAWLSSFGDKIEAVFANNDDMALGAIEALKSAGYFTGNKYIPVVGVDATAPGIQAIKDGTLLGTVLNDKKNQAKATFNIAYELAQGITPTKDNIGYDITDGKYVWIPYKKITKDNISDAEQGGSHHHHHH
modifications: ttGGBP17C.25 (affinity-tuning mutant, 17C background (Table 6) with signal peptide replaced with M and GGSHHHHHH at C-terminus)
As for B3, the Kd worked out at 3200 µM in data set [3] (setting [6]) and 3700 µM in data set [3] (setting [8]). For the same molecule, the “Type of fluorescence response to glucose” value in data set [1] (setting [10]) is given as “i (i, intensity increase only)”. Besides, the “Galactose trueKd” value in data set [4] is given as “nb^e”.

B4: ttGGBP17C.1: affinity-tuning mutant, 17C background, SEQ ID NO: 66 (protein)
chain: MKQLNIGVAIYKFDDTCMTGVRNAMTAEAQGKAKLNMVDSQNSQPTQNDQVDLFITKKMNALAINPVDRTAAGTIIDKAKQANIPVVFFNKEPLPEDMKKWDKVYYVGAKAEQSGILQGQIMADYWKAHPEADKNHDGVMQYVMLMGEPGHQDAILRTQYSIQTVKDAGIKVQELAKDYANWDRVTAHDKMAAWLSSFGDKIEAVFANNDDMALGAIEALKSAGYFTGNKYIPVVGVDATAPGIQAIKDGTLLGTVLNDAKNQAKATFNIAYELAQGITPTKDNIGYDITDGKYVWIPYKKITKDNISDAEQGGSHHHHHH
modifications: ttGGBP17C.1 (affinity-tuning mutant, 17C background (Table 6) with signal peptide replaced with M and GGSHHHHHH at C-terminus)
Turning to B4, the Kd in data set [3] (setting [6]) is 600 µM; in data set [3] (setting [8]) it was 800 µM. Besides, the “Type of fluorescence response to glucose” value is recorded as “d (d, intensity decrease only)” in data set [1] (setting [9]) and “r(h) (r(h), ratiometric (hypsochromic shift))” in data set [1] (setting [10]).

B5: ttGGBP17C.9: affinity-tuning mutant, 17C background, SEQ ID NO: 74 (protein)
chain: MKQLNIGVAIYKFDDSCMTGVRNAMTAEAQGKAKLNMVDSQNSQPTQNDQVDLFITKKMNALAINPVDRTAAGTIIDKAKQANIPVVFFNREPLPEDMKKWDKVYYVGAKAEQSGILQGQIMADYWKAHPEADKNHDGVMQYVMLMGQPGHQDAILRTQYSIQTVKDAGIKVQELAKDYANWDRVTAHDKMAAWLSSFGDKIEAVFANNDDMALGAIEALKSAGYFTGNKYIPVVGVDATAPGIQAIKDGTLLGTVLNDAKNQAKATFNIAYELAQGITPTKDNIGYDITDGKYVWIPYKKITKDNISDAEQGGSHHHHHH
modifications: ttGGBP17C.9 (affinity-tuning mutant, 17C background (Table 6) with signal peptide replaced with M and GGSHHHHHH at C-terminus)
As for B5, the Kd in data set [3] (setting [5]) and in data set [3] (setting [7]) was 200 µM throughout. The “Type of fluorescence response to glucose” value in data set [1] (setting [9]) is “r(h) (r(h), ratiometric (hypsochromic shift))”.

B6: ttGGBP17C.29: affinity-tuning mutant, 17C background, SEQ ID NO: 87 (protein)
chain: MKQLNIGVAIYKFDDTCMTGVRNAMTAEAQGKAKLNMVDSQNSQPTQNDQVDLFITKKMNALAINPVDRTAAGTIIDKAKQANIPVVFFNREPLPEDMKKWDKVYYVGAKAEQSGILQGQIMADYWKAHPEADKNHDGVMQYVMLMGQPGHQDAILRTQYSIQTVKDAGIKVQELAKDYANWDRVTAHDKMAAWLSSFGDKIEAVFANNDDMALGAIEALKSAGYFTGNKYIPVVGVDATAPGIQAIKDGTLLGTVLNDSKNQAKATFNIAYELAQGITPTKDNIGYDITDGKYVWIPYKKITKDNISDAEQGGSHHHHHH
modifications: ttGGBP17C.29 (affinity-tuning mutant, 17C background (Table 6) with signal peptide replaced with M and GGSHHHHHH at C-terminus)
B6: in data set [2] (Badan conjugate), the apoTm is recorded as 343 K. The “Type of fluorescence response to glucose” value in data set [1] (setting [10]) is “i (i, intensity increase only)”.

B7: ttGGBP17C.11: affinity-tuning mutant, 17C background, SEQ ID NO: 76 (protein)
chain: MKQLNIGVAIYKFDDTCMTGVRNAMTAEAQGKAKLNMVDSQNSQPTQNDQVDLFITKKMNALAINPVDRTAAGTIIDKAKQANIPVVFFNREPLPEDMKKWDKVYYVGAKAEQSGILQGQIMADYWKAHPEADKNHDGVMQYVMLMGQPGHQDAILRTQYSIQTVKDAGIKVQELAKDYANWDRVTAHDKMAAWLSSFGDKIEAVFANNDDMALGAIEALKSAGYFTGNKYIPVVGVDAAAPGIQAIKDGTLLGTVLNDAKNQAKATFNIAYELAQGITPTKDNIGYDITDGKYVWIPYKKITKDNISDAEQGGSHHHHHH
modifications: ttGGBP17C.11 (affinity-tuning mutant, 17C background (Table 6) with signal peptide replaced with M and GGSHHHHHH at C-terminus)
For B7, the apoTm in data set [2] (Acrylodan conjugate) was 348 K. Moreover, the Kd in data set [3] (setting [5]) and in data set [3] (setting [7]) was 40 µM each time. Further, in data set [1] (setting [9]), the “Type of fluorescence response to glucose” value is given as “d (d, intensity decrease only)”.

The values are drawn from US11156615B2 (priority 2015, dated 2021).
